In the supplement of paper PMC11246515:
± gives the standard deviation of the averaged measurements.

Assay: total protein half-life in vivo (active degradation + dilution); higher = more stable protein
[1] = E. coli NCM3722 delta-clpP delta-lon delta-hslV, growth: N-lim chemostat, doubling time 6 h
[2] = E. coli NCM3722 delta-clpP, growth: N-lim chemostat, doubling time 6 h
[3] = E. coli NCM3722 delta-hslV, growth: N-lim chemostat, doubling time 6 h
[4] = E. coli NCM3722 delta-lon, growth: N-lim chemostat, doubling time 6 h
[5] = E. coli NCM3722 delta-smpB, growth: N-lim chemostat, doubling time 6 h
[6] = wild type E. coli NCM3722, growth: C-lim chemostat, doubling time 3 h
[7] = wild type E. coli NCM3722, growth: C-lim chemostat, doubling time 6 h
[8] = wild type E. coli NCM3722, growth: C-lim chemostat, doubling time 12 h
[9] = wild type E. coli NCM3722, growth: N-lim chemostat, doubling time 6 h
[10] = wild type E. coli NCM3722, growth: N-lim chemostat, doubling time 12 h
[11] = wild type E. coli NCM3722, growth: P-lim chemostat, doubling time 6 h
[12] = wild type E. coli NCM3722, growth: P-lim chemostat, doubling time 12 h

Row | Sequence | total protein half-life in vivo [1] [h] | total protein half-life in vivo [2] [h] | total protein half-life in vivo [3] [h] | total protein half-life in vivo [4] [h] | total protein half-life in vivo [5] [h] | total protein half-life in vivo [6] [h] | total protein half-life in vivo [7] [h] | total protein half-life in vivo [8] [h] | total protein half-life in vivo [9] [h] | total protein half-life in vivo [10] [h] | total protein half-life in vivo [11] [h] | total protein half-life in vivo [12] [h]
1 | MQARVKWVEGLTFLGESASGHQILMDGNSGDKAPSPMEMVLMAAGGCSAIDVVSILQKGRQDVVDCEVKLTSERREEAPRLFTHINLHFIVTGRDLKDAAVARAVDLSAEKYCSVALMLEKAVNITHSYEVVAA [P0ADX1] | 5.2 ± 0.18 | 5.55 ± 1.8 | 4.69 ± 0.32 | 5.8 ± 1.1 | 5.32 ± 0.37 | > 4 | 6.49 ± 0.41 | 10.8 ± 3.3 | 4.88 ± 0.78 | 8.73 ± 0.8 | 5.45 ± 0.51 | 
2 | MKKILLMLSLLFFTTAGFSEVSDTLVTGGYDKQAMSDAIKHARKETDKFIEVMNKKDADTFAVKAPITDHGRTEHFWLTDVTYSNGMFIGVISNDPGIVTNVEYGQEWKIKKEDISDWMYTRGDKIYGGYTIDPLLVTYPKEEADELRAKLVR | 3.76 | 4.8 | 4.78 ± 1.5 | 5.28 | 4.01 ± 0.41 | 2.2 | 5.15 ± 0.19 | 6.65 | 4.65 | 7.64 | 3.47 ± 0.23 | 5.28 ± 1.1
3 | MTDKLTSLRQYTTVVADTGDIAAMKLYQPQDATTNPSLILNAAQIPEYRKLIDDAVAWAKQQSNDRAQQIVDATDKLAVNIGLEILKLVPGRISTEVDARLSYDTEASIAKAKRLIKLYNDAGISNDRILIKLASTWQGIRAAEQLEKEGINCNLTLLFSFAQARACAEAGVFLISPFVGRILDWYKANTDKKEYAPAEDPGVVSVSEIYQYYKEHGYETVVMGASFRNIGEILELAGCDRLTIAPALLKELAESEGAIERKLSYTGEVKARPARITESEFLWQHNQDPMAVDKLAEGIRKFAIDQEKLEKMIGDLL [P0A870] | 5.35 ± 0.57 | 5.12 ± 0.34 | 5.35 ± 0.39 | 5.6 ± 0.23 | 5.04 ± 0.11 | 3.448 ± 0.0017 | 5.81 ± 0.19 | 11.1 ± 1.2 | 5.14 ± 0.23 | 9.23 ± 0.13 | 6.18 ± 0.083 | 13.7 ± 0.78
4 | MFSIQQPLLVFSDLDGTLLDSHSYDWQPAAPWLTRLREANVPVILCSSKTSAEMLYLQKTLGLQGLPLIAENGAVIQLAEQWQEIDGFPRIISGISHGEISLVLNTLREKEHFKFTTFDDVDDATIAEWTGLSRSQAALTQLHEASVTLIWRDSDERMAQFTARLNELGLQFMQGARFWHVLDASAGKDQAANWIIATYQQLSGKRPTTLGLGDGPNDAPLLEVMDYAVIVKGLNREGVHLHDEDPARVWRTQREGPEGWREGLDHFFSAR | 4.98 ± 0.28 | 4.08 ± 0.42 | 4.17 ± 0.055 | 4.3 ± 0.26 | 3.73 ± 0.22 | 2.87 ± 0.076 | 5.25 ± 0.12 | 8.64 ± 0.059 | 4.167 ± 0.036 | 6.751 ± 0.019 | 5.43 ± 0.42 | 10.5 ± 0.14
5 | MFRLNPFVRVGLCLSAISCAWPVLAVDDDGETMVVTASSVEQNLKDAPASISVITQEDLQRKPVQNLKDVLKEVPGVQLTNEGDNRKGVSIRGLDSSYTLILVDGKRVNSRNAVFRHNDFDLNWIPVDSIERIEVVRGPMSSLYGSDALGGVVNIITKKIGQKWSGTVTVDTTIQEHRDRGDTYNGQFFTSGPLIDGVLGMKAYGSLAKREKDDPQNSTTTDTGETPRIEGFSSRDGNVEFAWTPNQNHDFTAGYGFDRQDRDSDSLDKNRLERQNYSVSHNGRWDYGTSELKYYGEKVENKNPGNSSPITSESNTVDGKYTLPLTAINQFLTVGGEWRHDKLSDAVNLTGGTSSKTSASQYALFVEDEWRIFEPLALTTGVRMDDHETYGEHWSPRAYLVYNATDTVTVKGGWATAFKAPSLLQLSPDWTSNSCRGACKIVGSPDLKPETSESWELGLYYMGEEGWLEGVESSVTVFRNDVKDRISISRTSDVNAAPGYQNFVGFETGANGRRIPVFSYYNVNKARIQGVETELKIPFNDEWKLSINYTYNDGRDVSNGENKPLSDLPFHTANGTLDWKPLALEDWSFYVSGHYTGQKRADSATAKTPGGYTIWNTGAAWQVTKDVKLRAGVLNLGDKDLSRDDYSYNEDGRRYFMAVDYRF |  |  |  |  |  | 3.86 ± 0.058 |  |  |  | > 16 |  | > 16
